Measured values taken from publication PMC5462952.

Target: HA-tagged C-terminal region of CaV1.3α (aa 1509–2203) (rat) (UniProt P27732)
Chain of UniProt P27732 (P27732 1509-2203): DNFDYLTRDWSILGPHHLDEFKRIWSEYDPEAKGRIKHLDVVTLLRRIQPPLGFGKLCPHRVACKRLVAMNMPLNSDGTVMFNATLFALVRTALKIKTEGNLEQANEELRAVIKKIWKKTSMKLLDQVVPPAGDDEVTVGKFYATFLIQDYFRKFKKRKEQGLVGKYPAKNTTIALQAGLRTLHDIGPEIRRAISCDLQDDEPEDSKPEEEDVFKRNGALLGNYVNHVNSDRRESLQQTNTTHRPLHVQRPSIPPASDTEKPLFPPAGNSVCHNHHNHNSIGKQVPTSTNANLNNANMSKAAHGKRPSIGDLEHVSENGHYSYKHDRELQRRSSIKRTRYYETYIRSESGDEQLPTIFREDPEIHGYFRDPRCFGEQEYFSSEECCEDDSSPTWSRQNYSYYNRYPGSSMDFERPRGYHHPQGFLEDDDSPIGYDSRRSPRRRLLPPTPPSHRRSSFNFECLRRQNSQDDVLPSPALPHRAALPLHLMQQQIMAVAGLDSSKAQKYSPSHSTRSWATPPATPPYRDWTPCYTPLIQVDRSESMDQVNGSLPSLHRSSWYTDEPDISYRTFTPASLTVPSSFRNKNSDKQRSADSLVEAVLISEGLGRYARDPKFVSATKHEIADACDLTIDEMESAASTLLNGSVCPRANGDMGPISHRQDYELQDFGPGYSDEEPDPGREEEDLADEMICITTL

- shift of the voltage-dependence of CaV1.3 channel activation in HEK293/SK3-1 cells co-expressing RIM2α: 3 mV
Substance: full-length untagged RIM2α (from UniProt Q9EQZ7-1 1-1530) (natural protein)
